{"source": "paper PMC3470471", "about": "(Circulation research, 2012)", "proteins": {"B1": {"name": "myosin light chain 1 (rat cardiac myofibrils) (natural protein)", "chain": "not shown"}}, "target": "the molecule itself", "test": "cross-linking"}
{"protein": "B1", "values": [{"measurement": "stoichiometry N", "value": 2}]}
